Legend:
Experiment in all cases: not stated; Table 1, GST-RBD, GDP-RhoA, GTP-Cdc42, GTP-Rac1; the caption names competition ELISA and SPR but not which gave these limits
[1] = biological target: GST-Cdc42 (UniProt P60953)
[2] = biological target: GST-Rac1 (UniProt P63000)
[3] = biological target: GST-RhoA (wild type) (UniProt P61586)

Measured: Kd

Chain of GST-Cdc42 (P60953 whole entry): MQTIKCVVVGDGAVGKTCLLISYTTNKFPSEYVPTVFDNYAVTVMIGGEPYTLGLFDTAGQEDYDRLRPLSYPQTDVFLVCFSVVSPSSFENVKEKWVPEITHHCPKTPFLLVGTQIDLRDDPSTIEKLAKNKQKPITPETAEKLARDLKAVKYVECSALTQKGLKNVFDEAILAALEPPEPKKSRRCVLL
Chain of GST-RhoA (wild type) (P61586 whole entry): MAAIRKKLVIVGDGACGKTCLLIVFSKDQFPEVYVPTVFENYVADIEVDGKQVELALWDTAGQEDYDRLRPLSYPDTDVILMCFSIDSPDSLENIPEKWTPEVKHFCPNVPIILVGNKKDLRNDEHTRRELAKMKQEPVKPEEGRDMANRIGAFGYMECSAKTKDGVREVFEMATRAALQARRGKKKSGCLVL

GST-RBD (Rho binding domain of Rhotekin fused to GST) (domain or fragment)
> 50 µM: [1] | [2] | [3]

From paper PMC2323369
